In US6303339A, “DNA segments encoding autoimmune polypeptide epitopes of Ro/ss-A antigen” (Board of Regents, The University of Texas System, priority 1991, dated 2001):

Key:
[1] = cited from earlier work
[2] = test system: anti-Ro/SS-A antibodies (human autoimmune serum); experiment: ELISA, immobilized peptide reacted with human autoimmune anti-Ro/SS-A serum; type: binding
Description: Human antisera. Anti-Ro/SS-A sera were selected by the presence of a single precipitin line in Ouchterlony analysis having complete identify with prototypic sera used in studies of Lieu et al. (17). The absence of antibodies to other nuclear antigens such as La/SS-B, U1 -RNP and Sm was also confirmed by ELISA. Monospecific anti-Sm and anti-La/SS-B human autoimmune sera were originally obtained from the laboratory of Dr. E. M. Tan (Scripps Research Institute, La Jolla, Calif.).
The native Ro/SS-A antigen (5 ug/ml) or synthetic peptide (10 ug/ml) in PBS was added to wells of a microtiter plate and incubated 16 hours at 4° C. The plates were washed with PBS-Tween and the remaining sites were coated with 1% BSA for 1 hour. After washing 3 times with PBS-Tween, sera diluted with 1% BSA, 0.5% bovine gamma globulin (BGG) in PBS-Tween were added and incubated for 2 hours. The plates were then washed 3 times with PBS-Tween. Peroxidase conjugated goat-anti-human IgG diluted 1:3000 in PBS-Tween containing 1% BSA and 0.5% BGG was added and incubated for 2 hours at room temperature. The plates were washed in a similar manner. […] The optical density was measured using a Titertek Multiskan brand ELISA plate reader.

Molecule	isoelectric point measured from the native purified protein [1]	binding to anti-Ro/SS-A serum in ELISA (in words) [2]
native purified protein: native 60 kD Ro protein purified from the human Wil-2 cell line	4.67	
ribonuclease A (protein, UniProt P61823 27-150, looked up, control polypeptide in ELISA) Ribonuclease pancreatic: KETAAAKFERQHMDSSTSAASSSNYCNQMMKSRNLTKDRCKPVNTFVHESLADVQAVCSQKNVACKNGQTNCYQSYSTMSITDCRETGSSKYPNCAYKTTQANKHIIVACEGNPYVPVHFDASV		did not react
